Here are results for ten molecules from patent US20250270287A1 (KEROS THERAPEUTICS, published 2025).

Residue numbers refer to the chain shown, from its start. Where two headings read alike, the source gives them in different places. Some results are limits rather than exact numbers.

The target in test [1] is T1, BMP-9 (UniProt Q9UK05 320-429).
T1 construct: also called bone morphogenetic protein 9
T1 sequence (looked up): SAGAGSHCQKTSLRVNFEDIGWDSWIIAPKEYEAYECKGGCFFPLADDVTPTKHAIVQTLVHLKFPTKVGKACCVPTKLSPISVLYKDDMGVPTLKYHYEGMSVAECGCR
The experiment in a line: SPR (Biacore 8K), Fc protein captured on anti-human IgG, ligand injected. Here is the method: (§1) The Cytiva Biacore 8k was used to measure the kinetics of the interactions between the ActRII- and chimera-Fc proteins and Activin A/Activin B/growth differentiation factor 8 (GDF-8)/GDF-11/BMP-9/BMP-10. Series S CM4 Sensor Chips were immobilized with anti-human capture antibody using the reagents and protocol in the Biacore Human Antibody Capture Kit (GE Life Sciences). Briefly, anti-human IgG was diluted to 25 μg/mL in immobilization buffer. The carboxylated surface of the sensor was activated by injecting a mixture of EDC and NHS. The anti-human IgG was injected into the activated sensor chip flow cells at 10 μL/min for a total of 7 minutes until the chip reached an immobilization level of 3000 resonance units (RU). Ethanolamine was injected to deactivate the sensor surfaces. The chip has 8 flow cells to be used for binding analysis, each with an in-line reference surface to subtract instrument noise and non-specific binding to the sensor chip. The ActRII- and chimera-Fc proteins were captured in their own flow cell to allow for a maximum analyte binding response of 20-30 RU. This was done by injecting 10-20 μL of the ActRII- and chimera-Fc proteins into the flow cells at a concentration of 2 μg/mL until 60-90 RU was captured. Ligand at a single concentration was injected at […] for 60 seconds and then allowed to dissociate under buffer flow for no less than 5 minutes. After the cycle completed, captured protein was stripped from the chip with an injection of 3 M magnesium chloride, the regeneration buffer provided with the Biacore Human Antibody Capture Kit. Each ligand was injected in a concentration series, including a buffer only 0 nM concentration to serve as a double reference for subtracting out instrument noise. The data were analyzed using the Biacore Insight Evaluation Software.
(Surface plasmon resonance follows binding to a sensor surface in real time, without labels.)

In test [2] the target is T2, GDF-11 (UniProt O95390 299-407).
T2 construct: also called growth and differentiation factor 11
T2 sequence (looked up): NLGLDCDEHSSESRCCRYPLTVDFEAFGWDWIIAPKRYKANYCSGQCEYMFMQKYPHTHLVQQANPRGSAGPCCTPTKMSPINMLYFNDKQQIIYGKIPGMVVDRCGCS
The test is described as above. Here is the method: as §1

A further test has as its target T3, BMP-10 (UniProt O95393 317-424).
T3 sequence (looked up): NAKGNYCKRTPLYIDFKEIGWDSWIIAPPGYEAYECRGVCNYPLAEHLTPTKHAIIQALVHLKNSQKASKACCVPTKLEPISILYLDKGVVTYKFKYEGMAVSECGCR
The description is as above. Here is the method:
as §1

For test [3], the target named is T4, growth differentiation factor 8 (GDF-8) (UniProt O14793 267-375).
T4 construct: also called myostatin
T4 sequence (looked up): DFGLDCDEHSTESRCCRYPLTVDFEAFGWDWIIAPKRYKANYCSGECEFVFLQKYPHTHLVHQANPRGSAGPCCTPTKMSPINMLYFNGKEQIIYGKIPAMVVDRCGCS
The description is as above. The procedure: as §1

The target of test [4] is T5, Activin A (UniProt P08476 311-426).
T5 sequence (looked up): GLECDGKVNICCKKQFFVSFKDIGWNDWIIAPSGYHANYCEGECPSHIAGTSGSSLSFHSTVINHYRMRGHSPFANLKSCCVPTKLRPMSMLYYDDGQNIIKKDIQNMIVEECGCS
The description is as above. The procedure: as §1

Test [5] has as its target T6, Activin B (UniProt P09529 293-407).
T6 sequence (looked up): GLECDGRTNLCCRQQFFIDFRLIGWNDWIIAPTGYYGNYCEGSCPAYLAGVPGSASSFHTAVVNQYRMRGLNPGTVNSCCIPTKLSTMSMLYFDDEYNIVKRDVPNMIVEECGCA
The description is as above. Here is the method:
as §1

Test [6] has as its target T1, BMP-9. Kind of test: cell-based or functional assay.
For test [7], the target named is T2, GDF-11. The experiment in a line: cell-based or functional assay.
In test [8] the target is T5, Activin A. The experiment in a line: cell-based or functional assay.
In test [9] the target is T6, Activin B. The experiment in a line: cell-based or functional assay.
Test [10] addresses T1, BMP-9. The experiment in a line: cell-based or functional assay. This is another data set of the same source.
The target of test [11] is T2, GDF-11. Kind of test: cell-based or functional assay. This is another data set of the same source.
For test [12], the target named is T5, Activin A. Kind of test: cell-based or functional assay. The source holds these as a separate data set.
In test [13] the target is T6, Activin B. The experiment in a line: cell-based or functional assay. The source holds these as a separate data set.

B1: ActRIIB-B1B2B3B4 (SEQ ID NO: 119) chimera-Fc protein (Fc fusion)
chain: GRGEAETRECLFFNANWELERTNQTGVEPCEGEQDKRRHCFATWKNISGSIEIVKQGCWLDDFNCYDRQECVATEENPQVYFCCCEGNFCNERFTHLPEAGGPEVTYEPPPTAPT
notes: Tested as chimera-Fc protein; not shown: linker (if any) and Fc domain
A word on the Kd: it is the equilibrium constant for the complex coming apart. A high value points to weaker binding. On to B1, for which the Kd was 1080 pM in the test with BMP-9 [1]; below 1 pM in the test with GDF-11 [2]; 369 pM with BMP-10; 3.54 pM in test [3]; 6.6 pM with Activin A [4]; 19.7 pM in the test with Activin B [5]. For the same molecule, the “IC50, BRE-luciferase reporter in C2C12 cells” value (“IC50, BRE-luciferase reporter” below) with BMP-9 [6] turned out to be 0.36 µg/mL. Moreover, the “IC50, SBE-luciferase reporter in HEK293 cells” value (shortened to “IC50, SBE-luciferase reporter”) in the test with GDF-11 [7] was 0.14 µg/mL; in the test with Activin A [8], 0.13 µg/mL; in the test with Activin B [9], 0.086 µg/mL.

B2: ActRIIB-A8 (SEQ ID NO: 126) chimera-Fc protein (Fc fusion)
chain: GRGEAETRECIYYNANWELERTNQSGLERCEGEQDKRLHCYASWRNSSGTIELVKKGCWLDDFNCYDRQECVATEENPQVYFCCCEGNFCNERFTHLPEMEVTQPTS
notes: as for B1
For the molecule B2, the Kd is 74 pM with BMP-9 [1]; below 1 pM with GDF-11 [2]; 29.2 pM with BMP-10; 4.23 pM in [3]; 44.2 pM with Activin A [4]; below 1 pM with Activin B [5]. The “IC50, BRE-luciferase reporter” value with BMP-9 [6] was determined as 3.6 µg/mL. The “IC50, SBE-luciferase reporter” value with GDF-11 [7] came out at 0.13 µg/mL; in the test with Activin A [8], 0.23 µg/mL; in the test with Activin B [9] it was 0.052 µg/mL.

B3: ActRIIB-B5 (SEQ ID NO: 114) chimera-Fc protein (Fc fusion)
chain: GRGEAETRECIYYNANWELERTNQSGLERCEGEQDKRLHCYASWRNSSGTIELVKKGCWLDDFNCYDRQECVEKEENPQVYFCCCEGNFCNERFTHLPEAGGPEVTYEPPPTAPT
notes: as for B1
As for B3, the Kd with BMP-9 [1] is 63.2 pM; with GDF-11 [2], below 1 pM; with BMP-10 it was 41.4 pM; in test [3], 10.2 pM; with Activin A [4] it was 3.27 pM; in the test with Activin B [5], 15.8 pM. Also, the “IC50, BRE-luciferase reporter” value with BMP-9 [6] was 0.022 µg/mL. Besides, the results for the “IC50, SBE-luciferase reporter” value with GDF-11 [7], with Activin A [8] and with Activin B [9] were 0.096 µg/mL, 0.069 µg/mL and 0.11 µg/mL, respectively.

B4: ActRIIB-B7 (SEQ ID NO: 115) chimera-Fc protein (Fc fusion)
chain: B3 chain with E73A, K74T, R93K, T95S, H96Y, L97F
notes: as for B1
With B4, the Kd in the test with BMP-9 [1] is 20.2 pM; in the test with GDF-11 [2] it was below 1 pM; with BMP-10, below 1 pM; in [3], 3.46 pM; with Activin A [4] it was below 1 pM; in the test with Activin B [5], below 1 pM. In addition, the “IC50, BRE-luciferase reporter” value in the test with BMP-9 [6] was 0.032 µg/mL. Also, the “IC50, SBE-luciferase reporter” value with GDF-11 [7] was 0.15 µg/mL; with Activin A [8], 0.067 µg/mL; in the test with Activin B [9], 0.12 µg/mL.

B5: ActRIIA-A3 (SEQ ID NO: 106) chimera-Fc protein (Fc fusion)
chain: GAILGRSETQECLFFNANWEKDRTNQTGVEPCEGEQDKRRHCFATWKNISGSIEIVKQGCWLDDINCYDRTDCVEKKDSPEVYFCCCEGNMCNEKFSYFPEMEVTQPTS
notes: as for B1
In the case of B5, the Kd in the test with BMP-9 [1] was 18000 pM; with GDF-11 [2], below 1 pM; in the test with BMP-10 it was 28.9 pM; in test [3], 97.7 pM; with Activin A [4] it was 35.7 pM; with Activin B [5], 75.5 pM. Further, the “IC50, BRE-luciferase reporter” value with BMP-9 [10] was found to be 12 µg/mL. Moreover, the “IC50, SBE-luciferase reporter” value was 0.19 µg/mL with GDF-11 [11], 0.63 µg/mL with Activin A [12] and 0.24 µg/mL in the test with Activin B [13].

B6: ActRIIA-A6 (SEQ ID NO: 108) chimera-Fc protein (Fc fusion)
chain: B5 chain with E33Y, E35D, Q36K, K77E, D78E, S79N, E81Q
notes: as for B1
As for B6, the Kd is 49700 pM in the test with BMP-9 [1]; below 1 pM in the test with GDF-11 [2]; 347 pM with BMP-10; 68.2 pM in [3]; 32 pM in the test with Activin A [4]; 55.8 pM with Activin B [5]. Also, in the test with BMP-9 [10], the “IC50, BRE-luciferase reporter” value was found to be 8.8 µg/mL. Also, the “IC50, SBE-luciferase reporter” value turned out to be 0.077 µg/mL with GDF-11 [11], 0.33 µg/mL with Activin A [12] and 0.1 µg/mL with Activin B [13].

B7: ActRIIA-B1B7 (SEQ ID NO: 101) chimera-Fc protein (Fc fusion)
chain: B5 chain with L13I, F14Y, F15Y, E33Y, E35D, Q36K, K95R, S97T, Y98H, F99L
notes: Tested as chimera-Fc protein; also called ActRIIA-B1β7; not shown: linker (if any) and Fc domain
As to B7, the Kd with BMP-9 [1] is 77200 pM; in the test with GDF-11 [2], below 1 pM; in the test with BMP-10, 200 pM; in test [3], 89.8 pM; with Activin A [4], 21.7 pM; in the test with Activin B [5] it was 24.9 pM. The “IC50, BRE-luciferase reporter” value with BMP-9 [10] is above 50 µg/mL. The figures for the “IC50, SBE-luciferase reporter” value with GDF-11 [11], with Activin A [12] and with Activin B [13] were 0.39 µg/mL, 1.4 µg/mL and 0.25 µg/mL, respectively.

B8: ActRIIA-B1B4 (SEQ ID NO: 102) chimera-Fc protein (Fc fusion)
chain: B5 chain with L13I, F14Y, F15Y, E33Y, E35D, Q36K, S52T, I55L, Q58K
notes: Tested as chimera-Fc protein; also called ActRIIA-B1β4; not shown: linker (if any) and Fc domain
As to B8, the dissociation constant Kd came to 32900 pM with BMP-9 [1]; 3430 pM in the test with GDF-11 [2]; 227 pM in the test with BMP-10; 125 pM in test [3]; 24 pM in the test with Activin A [4]; 5.31 pM with Activin B [5]. In the test with BMP-9 [10], the “IC50, BRE-luciferase reporter” value was above 50 µg/mL. In addition, the results for the “IC50, SBE-luciferase reporter” value with GDF-11 [11], with Activin A [12] and with Activin B [13] were 0.26 µg/mL, 0.75 µg/mL and 0.13 µg/mL, respectively.

B9: ActRIIA-A5 (SEQ ID NO: 107) chimera-Fc protein (Fc fusion)
chain: B5 chain with E33Y, E35D, Q36K, I65F, T71Q, D72E
notes: as for B1
On to B9, for which the dissociation constant Kd with BMP-9 [1] turned out to be 2550 pM; in the test with GDF-11 [2], 6.65 pM; with BMP-10 it was 126 pM; in [3] it was 122 pM; with Activin A [4], 48 pM; with Activin B [5], 17.4 pM. The “IC50, BRE-luciferase reporter” value in the test with BMP-9 [10] is 4.2 µg/mL. Also, the “IC50, SBE-luciferase reporter” value came to 0.23 µg/mL with GDF-11 [11], 0.3 µg/mL in the test with Activin A [12] and 0.073 µg/mL in the test with Activin B [13].

B10: ActRIIA-A1 (SEQ ID NO: 104) chimera-Fc protein (Fc fusion)
chain: GRGEAETRECLFFNANWEKDRTNQTGVEPCYGDKDKRRHCFATWKNISGSIEIVKQGCWLDDINCYDRTDCVEKKDSPEVYFCCCEGNMCNEKFSYFPEMEVTQPTS
notes: as for B1
With B10, the equilibrium dissociation constant (Kd) with BMP-9 [1] was 62000 pM; in the test with GDF-11 [2], below 1 pM; with BMP-10 it was 66.3 pM; in [3], 203 pM; with Activin A [4] it was 70.3 pM; with Activin B [5], 19.9 pM. Moreover, the “IC50, BRE-luciferase reporter” value in the test with BMP-9 [10] was 50 µg/mL. Further, the figures for the “IC50, SBE-luciferase reporter” value with GDF-11 [11], with Activin A [12] and with Activin B [13] were 0.24 µg/mL, 0.64 µg/mL and 0.21 µg/mL, respectively.
